The target in one data set is T1, NPP1 (Oryza sativa, UniProt Q0X0G2).
T1 construct: recombinant, purified from transgenic rice cells (UNP1) overexpressing NPP1 cDNA; 70 kDa SDS-PAGE, 251 kDa gel filtration; gene on chromosome 8
T1 sequence (Q0X0G2 26-623): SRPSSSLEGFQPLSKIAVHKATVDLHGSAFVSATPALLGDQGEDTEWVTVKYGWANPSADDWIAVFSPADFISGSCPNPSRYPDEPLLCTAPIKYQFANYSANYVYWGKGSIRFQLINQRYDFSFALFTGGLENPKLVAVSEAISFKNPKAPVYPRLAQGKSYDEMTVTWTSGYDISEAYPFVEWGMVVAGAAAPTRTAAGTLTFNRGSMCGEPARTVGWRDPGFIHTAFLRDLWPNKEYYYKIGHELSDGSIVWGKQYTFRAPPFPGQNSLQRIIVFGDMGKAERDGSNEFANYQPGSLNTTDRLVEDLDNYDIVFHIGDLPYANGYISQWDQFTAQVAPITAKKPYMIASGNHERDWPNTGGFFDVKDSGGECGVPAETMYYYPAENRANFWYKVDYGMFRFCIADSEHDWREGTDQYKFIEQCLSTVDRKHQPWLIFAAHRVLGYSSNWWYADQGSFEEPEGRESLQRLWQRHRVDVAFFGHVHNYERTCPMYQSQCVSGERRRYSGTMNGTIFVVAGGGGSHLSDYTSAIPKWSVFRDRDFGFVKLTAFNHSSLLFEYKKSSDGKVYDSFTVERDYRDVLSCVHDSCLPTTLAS
In words: hydrolysis kinetics, […] substrate. It is filed as biochemical. The settings on record: 37°C, optimal pH.

Substrate in data set [1]: O=c1ccn([C@@H]2O[C@H](COP(=O)(O)OP(=O)(O)O)[C@@H](O)[C@H]2O)c(=O)[nH]1
In words: purified protein. The note with it: 37°C, optimal pH.

Substrate in data set [2]: O=c1ccn([C@@H]2O[C@H](CO[P@@](=O)(O)O[P@@](=O)(O)O[C@H]3O[C@H](CO)[C@@H](O)[C@H](O)[C@H]3O)[C@@H](O)[C@H]2O)c(=O)[nH]1
Description: purified protein, by the assay type. Details: steady-state hydrolysis kinetics of purified recombinant rice NPPs, substrate 0.1-10 mM, 37 °C, optimal pH. The text has this: (§1) To carry out substrate specificity and kinetic studies of NPP1, NPP2 and NPP6, in this work we produced transgenic rice cells ectopically expressing NPP1, NPP2 and NPP6 and purified the corresponding recombinant proteins as described in the Materials and Methods. Details of the processes for purification of recombinant proteins and quality of the final preparations are shown in Supplementary Table S2 and Supplementary Fig. S1A. […] Purification procedures of NPP1, NPP2 and NPP6 expressed in the transgenic rice cells (UNP1, UNP2 and UNP6, respectively) were essentially identical to those used in the earlier study ([Nanjo et al. 2006]). They are summarized in Supplementary Table S2. Rice callus cells (200 g) derived from the seed embryos of UNP1, UNP2 and UNP6 lines were homogenized in 5 vols. of 10 mM Tris–HCl (pH 8.8) and filtered through four layers of gauze. The homogenates were centrifuged at 20,000 × g for 10 min. The supernatants were then adjusted to acidic pH 5.4 with acetate buffer and centrifuged at 20,000 × g. After re-adjustment to pH 7.4 with 1.5 M Tris–HCl (pH 8.8) and further centrifugation at 20,000 × g, the resulting supernatants were applied to a Con A–Sepharose 4B column (ø 1.0 × 8 cm, Pharmacia) equilibrated with 40 mM Tris–HCl (pH 7.4), 0.5 M NaCl, 1 mM MnCl2 and 1 mM CaCl2, and eluted with 25 ml of 0.5 M α-methyl-D-mannopyranoside in 10 mM Tris–HCl (pH 7.4). The eluents were applied to a Q Sepharose HP column (ø 1.0 × 3 cm, Pharmacia) equilibrated with 10 mM Tris–HCl (pH 7.4) and eluted with 50 ml of a linear gradient of 0–0.5 M NaCl in 10 mM Tris–HCl (pH 7.4). Finally, the enzyme preparation was desalted by ultrafiltration on a Microcon YM-100 (Amicon).

Substrate in data set [3]: O=[N+]([O-])c1ccc(OP(=O)(O)Oc2ccc([N+](=O)[O-])cc2)cc1
In words: purified protein. It is filed as biochemical, Oryza sativa. The note with it: 37°C, optimal pH.

Substrate in data set [4]: Nc1ncnc2c1ncn2[C@@H]1O[C@H](COP(=O)(O)OP(=O)(O)O[C@H]2O[C@H](CO)[C@@H](O)[C@H](O)[C@H]2O)[C@@H](O)[C@H]1O
In words: purified protein. It is filed as biochemical, Oryza sativa. The settings on record: 37°C.

Substrate in data set [5]: Nc1ncnc2c1ncn2[C@@H]1O[C@H](COP(=O)(O)OP(=O)(O)O)[C@@H](O)[C@H]1O
In words: purified protein. It is filed as biochemical, Oryza sativa. The note with it: 37°C, optimal pH (pH 4.0 with ADP), no metal required, pH 4.0.

Substrate in data set [6]: O=P(O)(O)OP(=O)(O)O
In words: purified protein. It is filed as biochemical, Oryza sativa. The note with it: 37°C, optimal pH.

Substrate in data set [7]: NC(=O)c1ccc[n+]([C@@H]2O[C@H](COP(=O)([O-])OP(=O)(O)OC[C@H]3O[C@@H](n4cnc5c(N)ncnc54)[C@H](OP(=O)(O)O)[C@@H]3O)[C@@H](O)[C@H]2O)c1
Description: purified protein, by the assay type. Set-up: steady-state hydrolysis kinetics of purified recombinant rice NPPs, substrate 0.1-10 mM, 37 °C, optimal pH.
Text: as §1

Substrate in data set [8]: NC(=O)c1ccc[n+]([C@@H]2O[C@H](COP(=O)(O)OP(=O)(O)OC[C@H]3O[C@@H](n4cnc5c(N)ncnc54)[C@H](O)[C@@H]3O)[C@@H](O)[C@H]2O)c1
In words: purified protein. The settings on record: 37°C, optimal pH. Format: biochemical, Oryza sativa.

The mark [9] stands for this setting: optimal pH (pH 5.0 with ADP-glucose), pH 5.0.
The mark [10] stands for this setting: optimal pH (pH 6.0 with ADP-glucose), no metal required, pH 6.0.

Consider `Nc1ncnc2c1ncn2[C@@H]1O[C@H](COP(=O)(O)OP(=O)(O)OP(=O)(O)O)[C@@H](O)[C@H]1O` [ATP], for which the Km at NPP1 stood at 2100 µM.

For `Nc1ccn([C@@H]2O[C@H](COP(=O)(O)OP(=O)(O)O[C@H]3O[C@H](CO)[C@@H](O)[C@H](O)[C@H]3O)[C@@H](O)[C@H]2O)c(=O)n1` [CDP-glucose], at NPP1, the Km came out at 900 µM.

On to `Nc1nc2c(ncn2[C@@H]2O[C@H](COP(=O)(O)OP(=O)(O)O[C@H]3O[C@H](CO)[C@@H](O)[C@H](O)[C@@H]3O)[C@@H](O)[C@H]2O)c(=O)[nH]1` [GDP-mannose], for which the Km at NPP1 turned out to be 800 µM.

B1: NPP6 (Oryza sativa Japonica Group) (protein)
chain: GGGGGVWAFSSSSSSSSYSRIGEQPLSLIGIHRATVGIDAAASVQASPRLLGVKGEDTAWVTVDFAAPHASDGDWIGVFSPSNFNASTCPGPSGSDSGPVICSAPIKYQLANYSSDYGKTGKGTLKFQLINQRQDFSFALFTGGLSNPKLIAVSNKIAFANPKAPVYPRLAQGKSWNEMTVTWTSGYDIKEAYPFVEWGMKWSPPTRTAAGTVTFDRESLCGEPARTVGWRDPGFIHTAFLTDLWPNKEYYYKIGHMLPDGKIVWGKFYSFKAPPFPGQKSLQRVVIFGDMGKAERDGSNEYSNYQPGSLNTTDTLIKDLDNIDIVFHIGDITYANGYISQWDQFTQQVEPITARVPYMIASGNHERDWPNSGSFFNGTDSGGECGVLAETMYYTPTENRANYWYKTDYGMFRFCVADSEHDWREGTEQYAFIESCLATVDRKKQPWLVFIAHRVLGYSSGFFYGAGGAFAEPTARQSLQRLWQRHRVDLAFYGHVHNYERTCPVYDGRCASPERSRYSGAVGGTIHAVVGGGGSHLSNFTAEAPPWSVYREMDYGFVKLTAFNYTSLLYEYRRSSDGEVHDSFTVHREYRDVLACVADSCPPTIPPAT
notes: recombinant, purified from transgenic rice cells (UNP6); 74 kDa SDS-PAGE, 224 kDa gel filtration; gene on chromosome 9
As for B1, the Km in “purified protein [1]” is 500 µM; in [2], 1600 µM; in the data set “purified protein [3]” it was 3000 µM; in “purified protein [4]” (setting [9]), 700 µM; in “purified protein [5]”, 300 µM; in the data set “purified protein [6]”, 500 µM. Further, the Vmax in “purified protein [1]” was 84 µmol/min/mg; in “purified protein [3]” it was 250 µmol/min/mg; in “purified protein [4]” (setting [9]), 105 µmol/min/mg; in “purified protein [5]”, 68 µmol/min/mg; in “purified protein [6]”, 64 µmol/min/mg. Besides, the catalytic constant (kcat) in the data set “purified protein [1]” came to 104 s⁻¹; in data set [2] it was 115 s⁻¹; in “purified protein [3]” it was 308 s⁻¹; in “purified protein [4]” (setting [9]) it was 130 s⁻¹; in the data set “purified protein [5]”, 83 s⁻¹; in the data set “purified protein [6]” it was 79 s⁻¹. For the same molecule, the kcat/Km was 203000 M⁻¹ s⁻¹ in “purified protein [1]”; 73000 M⁻¹ s⁻¹ in [2]; 103000 M⁻¹ s⁻¹ in “purified protein [3]”; 193000 M⁻¹ s⁻¹ in the data set “purified protein [4]” (setting [9]); 297000 M⁻¹ s⁻¹ in “purified protein [5]”; 175000 M⁻¹ s⁻¹ in the data set “purified protein [6]”.

B2: NPP1 (Oryza sativa Japonica Group) (protein)
chain: SRPSSSLEGFQPLSKIAVHKATVDLHGSAFVSATPALLGDQGEDTEWVTVKYGWANPSADDWIAVFSPADFISGSCPNPSRYPDEPLLCTAPIKYQFANYSANYVYWGKGSIRFQLINQRYDFSFALFTGGLENPKLVAVSEAISFKNPKAPVYPRLAQGKSYDEMTVTWTSGYDISEAYPFVEWGMVVAGAAAPTRTAAGTLTFNRGSMCGEPARTVGWRDPGFIHTAFLRDLWPNKEYYYKIGHELSDGSIVWGKQYTFRAPPFPGQNSLQRIIVFGDMGKAERDGSNEFANYQPGSLNTTDRLVEDLDNYDIVFHIGDLPYANGYISQWDQFTAQVAPITAKKPYMIASGNHERDWPNTGGFFDVKDSGGECGVPAETMYYYPAENRANFWYKVDYGMFRFCIADSEHDWREGTDQYKFIEQCLSTVDRKHQPWLIFAAHRVLGYSSNWWYADQGSFEEPEGRESLQRLWQRHRVDVAFFGHVHNYERTCPMYQSQCVSGERRRYSGTMNGTIFVVAGGGGSHLSDYTSAIPKWSVFRDRDFGFVKLTAFNHSSLLFEYKKSSDGKVYDSFTVERDYRDVLSCVHDSCLPTTLAS
notes: recombinant, purified from transgenic rice cells (UNP1) overexpressing NPP1 cDNA; 70 kDa SDS-PAGE, 251 kDa gel filtration; gene on chromosome 8
Turning to B2, in data set [7], the Km worked out at 1600 µM, the Vmax came to 121 µmol/min/mg, the kcat was 141 s⁻¹ and the kcat/Km was 85000 M⁻¹ s⁻¹. In “purified protein [8]”, the Km was 800 µM, the Vmax worked out at 93 µmol/min/mg, the catalytic constant (kcat) came to 109 s⁻¹ and the kcat/Km came to 133000 M⁻¹ s⁻¹. Moreover, in the data set “purified protein [4]” (setting [10]), the Km turned out to be 800 µM, the maximal velocity (Vmax) worked out at 183 µmol/min/mg, the kcat was 214 s⁻¹ and the kcat/Km amounted to 250000 M⁻¹ s⁻¹.

These data come from PMC3913438, “Nucleotide Pyrophosphatase/Phosphodiesterase 1 Exerts a Negative Effect on Starch Accumulation and Growth in Rice Seedlings under High Temperature and CO2 Concentration Conditions” (Plant and Cell Physiology, 2013).
